Values quoted from earlier work, collected in paper PMC4872106.

Biological target: M.EcoKI (Escherichia coli) (UniProt P08957)
Conditions: cited from earlier work

M.EcoKI (Escherichia coli), sequence (P08957 whole entry, chain 1 of 2): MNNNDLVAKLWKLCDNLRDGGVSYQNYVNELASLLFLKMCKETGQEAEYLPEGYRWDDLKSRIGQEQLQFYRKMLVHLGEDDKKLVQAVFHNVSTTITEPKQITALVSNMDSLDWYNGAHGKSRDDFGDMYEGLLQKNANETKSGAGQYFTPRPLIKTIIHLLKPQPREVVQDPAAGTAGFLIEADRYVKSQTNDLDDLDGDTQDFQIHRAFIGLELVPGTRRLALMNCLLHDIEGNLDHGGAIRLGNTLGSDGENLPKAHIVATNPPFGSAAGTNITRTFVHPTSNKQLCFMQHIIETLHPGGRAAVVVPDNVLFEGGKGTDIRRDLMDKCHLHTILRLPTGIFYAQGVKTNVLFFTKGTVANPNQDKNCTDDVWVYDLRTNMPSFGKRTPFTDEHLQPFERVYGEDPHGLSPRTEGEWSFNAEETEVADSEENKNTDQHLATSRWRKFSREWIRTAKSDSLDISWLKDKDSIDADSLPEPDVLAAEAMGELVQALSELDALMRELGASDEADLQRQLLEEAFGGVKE
M.EcoKI (Escherichia coli), sequence (P05719 2-464, chain 2 of 2, further chain): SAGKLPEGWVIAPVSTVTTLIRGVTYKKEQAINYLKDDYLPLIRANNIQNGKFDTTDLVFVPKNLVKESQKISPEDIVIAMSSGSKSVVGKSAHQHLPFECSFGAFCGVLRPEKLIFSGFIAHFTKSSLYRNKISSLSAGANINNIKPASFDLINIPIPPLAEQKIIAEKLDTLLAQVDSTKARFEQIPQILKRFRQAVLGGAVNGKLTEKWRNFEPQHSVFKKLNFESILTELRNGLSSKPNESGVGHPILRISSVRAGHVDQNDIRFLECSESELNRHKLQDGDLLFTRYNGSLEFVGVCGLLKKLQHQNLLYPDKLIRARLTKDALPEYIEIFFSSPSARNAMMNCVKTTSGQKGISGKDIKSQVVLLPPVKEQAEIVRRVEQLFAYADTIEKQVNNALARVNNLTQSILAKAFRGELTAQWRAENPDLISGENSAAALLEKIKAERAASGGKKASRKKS
Ocr, sequence (P03775 whole entry): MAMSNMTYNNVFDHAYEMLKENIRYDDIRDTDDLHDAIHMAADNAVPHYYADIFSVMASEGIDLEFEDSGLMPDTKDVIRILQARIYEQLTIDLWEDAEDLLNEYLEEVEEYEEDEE

For Ocr (from UniProt P03775), the Kd is given as 0.05 nM.
